T1: RANK (Receptor Activator of NF-kappa B) on primary murine cells (murine, UniProt O35305 31-625)
T1 construct: whole, on cells; Endogenous receptor on the cells
T1 sequence (looked up): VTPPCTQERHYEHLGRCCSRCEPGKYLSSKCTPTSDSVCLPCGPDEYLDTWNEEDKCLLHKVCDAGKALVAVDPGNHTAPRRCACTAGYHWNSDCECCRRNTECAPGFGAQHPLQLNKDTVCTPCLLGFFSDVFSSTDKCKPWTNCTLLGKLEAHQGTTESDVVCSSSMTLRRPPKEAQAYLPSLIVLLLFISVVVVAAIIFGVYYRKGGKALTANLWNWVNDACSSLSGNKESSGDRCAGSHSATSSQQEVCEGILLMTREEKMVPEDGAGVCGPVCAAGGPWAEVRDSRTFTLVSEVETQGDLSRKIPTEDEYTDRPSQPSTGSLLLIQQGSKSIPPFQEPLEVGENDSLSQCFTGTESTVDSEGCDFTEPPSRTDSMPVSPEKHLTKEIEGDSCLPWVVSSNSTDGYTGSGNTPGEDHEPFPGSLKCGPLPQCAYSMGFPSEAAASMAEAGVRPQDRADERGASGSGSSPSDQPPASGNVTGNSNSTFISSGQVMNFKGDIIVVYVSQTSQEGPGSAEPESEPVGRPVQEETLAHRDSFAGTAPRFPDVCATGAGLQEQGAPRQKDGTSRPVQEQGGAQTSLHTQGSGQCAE

B1: GST-RANKL fusion protein (glutathione S-transferase fused N-terminally to murine RANKL residues 158-316) (ligand)
chain: KPEAQPFAHLTINAASIPSGSHKVTLSSWYHDRGWAKISNMTLSNGKLRVNQDGFYYLYANICFRHHETSGSVPTDYLQLMVYVVKTSIKIPSSHNLMKGGSTKNWSGNSEFHFYSINVGGFFKLRAGEEISIQVSNPSLLDPDQDATYFGAFKVQDID
notes: By size exclusion it is a polydisperse mixture of mono-trimeric (1 n) and oligomeric (2-100 n) units; also called oligomeric GST-RANKL; not shown: vector-encoded linker with protease site between GST and the SalI cloning site
B2: cleaved RANKL (murine RANKL residues 158-316 with GST removed by rhinovirus 3C protease) (ligand)
chain: B1 chain
notes: It migrated as a single trimeric species (1 n) in gel filtration; also called RANKL alone

Target: T1, RANK (Receptor Activator of NF-kappa B) …
Experiment: confocal microscopy of primary murine osteoblasts exposed to 5 nM ligand, RANK stained with anti-RANK antibody
Method: Primary murine osteoblasts were maintained in α-MEM containing 10% fetal bovine serum, and cultured in MEM containing 15% FBS, 50 μM ascorbic acid, and 10 mM β-glycerophosphate for differentiation. Cells were maintained at 37° C. in a humidified atmosphere containing 6% CO₂, with daily replenishment of media and cytokines. Primary murine osteoblasts were cultured on coverslips in A-MEM containing 10% fetal bovine serum and treated with GST-RANKL or cleaved RANKL for the indicated times. For phospholipid membrane staining, cells were incubated for 20 minutes with Vybrant Dil lipophilic carbocyanine membrane fluorescent stain (Molecular Probes). Cells were fixed in 4% paraformaldehyde, permeabilized with 0.1% Triton-X, blocked with 1% BSA/0.2% nonfat dry milk in PBS, and stained for RANK with a polyclonal anti-RANK antibody. Serial optical sections were obtained using a Radiance2100 laser scanning confocal microscope (BioRad). Microscope settings were calibrated to black level values using cells stained with an isotypic Ig control. GST-RANKL was cleaved as described in Example 12.
Primary osteoblasts in culture were exposed to 5 nM cleaved RANKL or GST-RANKL. […] Confocal microscopy was employed to localize RANK (green fluorescence) and the cell surface (red fluorescence). On the merged images, colocalization of RANK and the cell surface appears yellow (overlap of green and red fluorescence). […]

| Binder | binding result |
| --- | --- |
| B1 | binds |
| B2 | binds |

From US20030013651A1 (BARNES JEWISH HOSPITAL, published 2003)
